The source of these data is paper PMC6004067.

Assay [1] deals with SNAP complex (SNAPc) immobilized on Strep-Tactin beads, Q5SXM2;Q92966;Q13487;Q16533;O75971. Description: pull-down on immobilized SNAPc, immunoblot quantification. The note with it: chain shown with the change. (In general: In western blotting, separated proteins are transferred to a membrane and probed.)
For assay [2], the target named is SNAP complex (SNAPc), Q5SXM2;Q92966;Q13487;Q16533;O75971. Description: Flag-bead pull-down, immunoblot quantification. As to conditions: chain shown with the change.

B1: TFIIB, full-length human, Flag- and His-tagged, Q00403 V245A; P246A; G247A; R248A; S249A (protein)
chain: MASTSRLDALPRVTCPNHPDAILVEDYRAGDMICPECGLVVGDRVIDVGSEWRTFSNDKATKDPSRVGDSQNPLLSDGDLSTMIGKGTGAASFDEFGNSKYQNRRTMSSSDRAMMNAFKEITTMADRINLPRNIVDRTNNLFKQVYEQKSLKGRANDAIASACLYIACRQEGVPRTFKEICAVSRISKKEIGRCFKLILKALETSVDLITTGDFMSRFCSNLCLPKQVQMAATHIARKAVELDLAAAAAPISVAAAAIYMASQASAEKRTQKEIGDIAGVADVTIRQSYRLIYPRAPDLFPTDFKFDTPVDKLPQL
Regarding B1, in assay [1], the ratio to parent came to 0.57.

B2: TFIIB, full-length human, Flag- and His-tagged, Q00403 R169E (protein)
chain: MASTSRLDALPRVTCPNHPDAILVEDYRAGDMICPECGLVVGDRVIDVGSEWRTFSNDKATKDPSRVGDSQNPLLSDGDLSTMIGKGTGAASFDEFGNSKYQNRRTMSSSDRAMMNAFKEITTMADRINLPRNIVDRTNNLFKQVYEQKSLKGRANDAIASACLYIACEQEGVPRTFKEICAVSRISKKEIGRCFKLILKALETSVDLITTGDFMSRFCSNLCLPKQVQMAATHIARKAVELDLVPGRSPISVAAAAIYMASQASAEKRTQKEIGDIAGVADVTIRQSYRLIYPRAPDLFPTDFKFDTPVDKLPQL
For B2, the ratio to parent in assay [2] worked out at 0.32.

B3: TFIIB, full-length human, Flag- and His-tagged, Q00403 S205A; V206A; D207A; L208A; I209A (protein)
chain: MASTSRLDALPRVTCPNHPDAILVEDYRAGDMICPECGLVVGDRVIDVGSEWRTFSNDKATKDPSRVGDSQNPLLSDGDLSTMIGKGTGAASFDEFGNSKYQNRRTMSSSDRAMMNAFKEITTMADRINLPRNIVDRTNNLFKQVYEQKSLKGRANDAIASACLYIACRQEGVPRTFKEICAVSRISKKEIGRCFKLILKALETAAAAATTGDFMSRFCSNLCLPKQVQMAATHIARKAVELDLVPGRSPISVAAAAIYMASQASAEKRTQKEIGDIAGVADVTIRQSYRLIYPRAPDLFPTDFKFDTPVDKLPQL
Turning to B3, the ratio to parent in assay [1] is 0.54.

B4: TFIIB, full-length human, Flag- and His-tagged, Q00403 R169E; K188E (protein)
chain: MASTSRLDALPRVTCPNHPDAILVEDYRAGDMICPECGLVVGDRVIDVGSEWRTFSNDKATKDPSRVGDSQNPLLSDGDLSTMIGKGTGAASFDEFGNSKYQNRRTMSSSDRAMMNAFKEITTMADRINLPRNIVDRTNNLFKQVYEQKSLKGRANDAIASACLYIACEQEGVPRTFKEICAVSRISEKEIGRCFKLILKALETSVDLITTGDFMSRFCSNLCLPKQVQMAATHIARKAVELDLVPGRSPISVAAAAIYMASQASAEKRTQKEIGDIAGVADVTIRQSYRLIYPRAPDLFPTDFKFDTPVDKLPQL
In the case of B4, the ratio to parent in assay [2] was found to be 0.13.

B5: TFIIB, full-length human, Flag- and His-tagged, Q00403 R185A; K188A; K189A (protein)
chain: MASTSRLDALPRVTCPNHPDAILVEDYRAGDMICPECGLVVGDRVIDVGSEWRTFSNDKATKDPSRVGDSQNPLLSDGDLSTMIGKGTGAASFDEFGNSKYQNRRTMSSSDRAMMNAFKEITTMADRINLPRNIVDRTNNLFKQVYEQKSLKGRANDAIASACLYIACRQEGVPRTFKEICAVSAISAAEIGRCFKLILKALETSVDLITTGDFMSRFCSNLCLPKQVQMAATHIARKAVELDLVPGRSPISVAAAAIYMASQASAEKRTQKEIGDIAGVADVTIRQSYRLIYPRAPDLFPTDFKFDTPVDKLPQL
B5: the ratio to parent in assay [1] came out at 0.04.
